Legend:
[1] = target: T1, Sox9 (recombinant, rSox9) (UniProt Q04887 Q04887:1-507); assay: EMSA; both sides mutated; shift disappeared; conditions: label: 32P
Protocol: (§1) To a reaction solution containing 20 mmol/L of HEPES (pH 7.9), 10% of glycerol, 50 mmol/L of KCl, 0.05% of NP-40, 0.5 mmol/L of EDTA, 0.5 mmol/L of DTT, 1 mmol/L of PMSF and 0.25 μg of Poly dG-dC was/were appropriately added 0.1 μg of a recombinant Sox9 (rSox9) and/or an anti-Sox9 antibody (manufactured by Millipore Corporation) followed by incubating at room temperature for 30 minutes. After that, the above RI-labeled probe was added, incubated at room temperature for 30 minutes and subjected to 4% polyacrylamide gel electrophoresis. After the electrophoresis, RI was detected using FLA-7000 (manufactured by Fujifilm) which is an image analysis apparatus.

recombinant Sox9 (rSox9) = target: T2, recombinant Sox9 (rSox9) (Homo sapiens, UniProt P48436); assay: Electrophoretic mobility shift assay (EMSA), Sox9 binding of RI-labeled probes; conditions: for shift of the band: incubation with rSox9
T2 sequence (P48436 1-509): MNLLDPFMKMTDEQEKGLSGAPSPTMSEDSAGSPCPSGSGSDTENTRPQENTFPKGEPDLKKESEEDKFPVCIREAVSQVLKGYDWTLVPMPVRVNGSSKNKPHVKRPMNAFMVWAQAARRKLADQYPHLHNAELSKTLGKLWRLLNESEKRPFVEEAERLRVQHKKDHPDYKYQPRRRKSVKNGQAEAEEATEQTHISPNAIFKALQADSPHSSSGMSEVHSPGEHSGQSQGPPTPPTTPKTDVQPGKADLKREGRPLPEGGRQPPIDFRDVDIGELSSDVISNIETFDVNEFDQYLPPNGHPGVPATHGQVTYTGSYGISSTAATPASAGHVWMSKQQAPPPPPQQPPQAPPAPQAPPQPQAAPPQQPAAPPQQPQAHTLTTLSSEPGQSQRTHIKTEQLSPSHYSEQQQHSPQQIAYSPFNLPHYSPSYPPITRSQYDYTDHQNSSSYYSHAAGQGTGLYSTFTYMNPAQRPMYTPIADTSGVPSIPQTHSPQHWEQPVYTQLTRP
Protocol: To a reaction solution comprising 1× Protruding End Kinase buffer, 0.4 μmol/L of sense oligo or antisense oligo and 1 U of T4 Polynucleotide Kinase (manufactured by Toyobo Co., Ltd.) was added P^32 γATP followed by subjecting to a reaction at 37° C. for 1 hour. The sense oligo and the antisense oligo finishing each of their reactions were mixed, incubated at 99° C. for 10 seconds and gradually returned to room temperature during 1 hour to prepare a double-stranded DNA labeled with radioisotope (RI). The RI-labeled probe was used after purifying by PrbeQuant G-50 Micro Column.
as §1

[2] = target: T1, Sox9 (recombinant, rSox9); assay: EMSA; 0.1 ug rSox9, poly dG-dC, 50 mM KCl, room temperature; supershift with anti-Sox9; conditions: label: 32P
Protocol: as §1

[3] = target: T1, Sox9 (recombinant, rSox9); assay: EMSA; right-side half-site mutated; shift disappeared; conditions: label: 32P
Protocol: as §1

[4] = target: T1, Sox9 (recombinant, rSox9); assay: EMSA; left-side half-site mutated; shift still observed; conditions: label: 32P
Protocol: as §1

B1: miR140-PSB-mut3 probe (dsDNA)
DNA 1: CTGGGTTGGGCCCCAGGCATCGTCCTGCTGCT
DNA 2: AGCAGCAGGACGATGCCTGGGGCCCAACCCAG
[1]
  binding result: no binding

B2: miR-140-PSB-mut3: RI-labeled probe, SEQ ID Nos. 34/35, mutation in both sides of the palindromic Sox9 binding sequence (nucleic acid)
chain 1: CTGGGTTGGGCCCCAGGCATCGTCCTGCTGCT
chain 2: AGCAGCAGGACGATGCCTGGGGCCCAACCCAG
modifications: DNA, backbone and methylation of C not given here; radioisotope-labeled double-stranded DNA probe, further chemistry not fully specified
Recombinant Sox9 (rSox9)
  shift of the band: shift of the band disappeared

B3: miR140-PSB probe (dsDNA)
DNA 1: CTGGACTGAGCCCCATTCATCGTCCTGCTGCT
DNA 2: AGCAGCAGGACGATGAATGGGGCTCAGTCCAG
[2]
  binding result: binds

B4: miR-140-PSB: RI-labeled double-stranded DNA probe, SEQ ID Nos. 28/29, palindromic Sox9 binding sequence (Table 3: miR140-PSB) (nucleic acid)
chain 1: CTGGACTGAGCCCCATTCATCGTCCTGCTGCT
chain 2: AGCAGCAGGACGATGAATGGGGCTCAGTCCAG
modifications: DNA, backbone and methylation of C not given here; radioisotope-labeled double-stranded DNA probe, further chemistry not fully specified
Recombinant Sox9 (rSox9)
  shift of the band: shift of the band was observed
Recombinant Sox9 (rSox9); rSox9 and further incubation with anti-Sox9 antibody
  supershift of the band: supershift of the band was observed

B5: miR-140-PSB-mut1: RI-labeled probe, SEQ ID Nos. 30/31, mutation in the right side of the palindromic Sox9 binding sequence (nucleic acid)
chain 1: CTGGACTGAGCCCCAGGCATCGTCCTGCTGCT
chain 2: AGCAGCAGGACGATGCCTGGGGCTCAGTCCAG
modifications: DNA, backbone and methylation of C not given here; radioisotope-labeled double-stranded DNA probe, further chemistry not fully specified
Recombinant Sox9 (rSox9)
  shift of the band: shift of the band disappeared

B6: miR140-PSB-mut1 probe (dsDNA)
DNA 1: CTGGACTGAGCCCCAGGCATCGTCCTGCTGCT
DNA 2: AGCAGCAGGACGATGCCTGGGGCTCAGTCCAG
[3]
  binding result: no binding

B7: miR-140-PSB-mut2: RI-labeled probe, SEQ ID Nos. 32/33, mutation in the left side of the palindromic Sox9 binding sequence (nucleic acid)
chain 1: CTGGGTTGGGCCCCATTCATCGTCCTGCTGCT
chain 2: AGCAGCAGGACGATGAATGGGGCCCAACCCAG
modifications: DNA, backbone and methylation of C not given here; radioisotope-labeled double-stranded DNA probe, further chemistry not fully specified
Recombinant Sox9 (rSox9)
  shift of the band: shift of the band was observed

B8: miR140-PSB-mut2 probe (dsDNA)
DNA 1: CTGGGTTGGGCCCCATTCATCGTCCTGCTGCT
DNA 2: AGCAGCAGGACGATGAATGGGGCCCAACCCAG
[4]
  binding result: binds

Reference: patent publication US20150056630A1, “DNA CONTROLLING MIR-140 EXPRESSION, AND SCREENING METHOD OF DRUGS USING SAID DNA” (NATIONAL CENTER FOR CHILD HEALTH AND DEVELOPMENT, priority 2012, published 2015)
